This test addresses T1, human β-globin polypeptide (product of the human β-globin transgene) (human, UniProt P68871 2-147).
T1 construct: Two copies stand in each hemoglobin tetramer (α2β2); also called hβ
Briefly: nondenaturing isoelectric focusing of transgenic mouse hemolysate; band excised and its chains identified on a denaturing cellulose acetate strip. The source says: Human α and β-globin mRNA detected in lung is the result of incomplete perfusion. Mouse α and β-globin mRNA are also observed in this non-erythroid tissue. (B) Nondenaturing, isoelectric focusing of transgenic mouse hemolysates. Hemolysates of control mouse (lane 1) human (lane 4) and transgenic mouse (lanes 2 and 3) blood were run on a native agarose isoelectric focusing gel and photographed without staining. (C) Denaturing cellulose acetate strip electrophoresis of transgenic mouse hemogobins. Hemoglobins were denatured in alkaline-urea buffer, electrophoresed on cellulose acetate strips, and stained with imido black.
To determine whether complete human hemoglobins were formed, we separated hemolysates of the blood of animals from two different transgenic lines by non-denaturing ioslectric focusing (IEF) (FIG. 14B). The first lane is a mouse control and the last lane is a normal human sample. The predominant band in each of the controls is the major adult hemoglobin, mouse α_2β_2 or human α_2β_2, respectively.

T1 sequence (P68871 2-147 limits assumed): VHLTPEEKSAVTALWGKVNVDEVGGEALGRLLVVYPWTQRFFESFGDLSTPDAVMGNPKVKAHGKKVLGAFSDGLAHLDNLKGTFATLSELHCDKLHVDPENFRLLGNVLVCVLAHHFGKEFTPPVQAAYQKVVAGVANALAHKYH

B1: mouse α-globin polypeptide (endogenous) (other)
chain: not shown
notes: Endogenous chain in the red blood cells of the transgenic mice; also called mα
Take B1: the binding result is listed as “binds”.

B2: human α-globin polypeptide (product of the human α1-globin transgene) (other)
chain: not shown
notes: Two copies stand in each hemoglobin tetramer (α2β2); also called hα
As for B2, the binding result is on record as “binds”.

For the origin of these results see patent publication US6613957 (UAB RESEARCH FOUNDATION, dated 2003).
